Several values for one entry are separate records, joined by “and”; a condition that tells them apart may be missing. Identical values can stand only once.
How the values were obtained:
[1] = target: the molecule itself; assay: cryo-EM structure; sample #3: ClyA 2.5 mg/mL with 0.5% DDM and 5 mM DTT at 4°C overnight, then SEC in 25 mM Tris-HCl pH 8.0, 150 mM NaCl, 0.05% digitonin, 2 mM DTT; Titan Krios 300 kV; C12, C13, C14 classes
[2] = target: the molecule itself; assay: cryo-EM structure; digitonin-induced intermediate state; Talos Arctica; 2D class averages and a map at 16 Å
[3] = target: the molecule itself; assay: negative staining EM; ClyA incubated with 1% digitonin overnight, fractions from SEC (Superose 6 10/300 GL); intermediate state
[4] = target: the molecule itself; assay: cryo-EM structure; sample #1: pore complexes in DDM, all SEC fractions pooled; Talos Arctica 200 kV; maps at 6.8 Å and 7.5 Å

B1: E. coli cytolysin A (ClyA) with complete N-terminal purification tag (natural protein)
chain: MTEIVADKTVEVVKNAIETADGALDLYNKYLDQVIPWQTFDETIKELSRFKQEYSQAASVLVGDIKTLLMDSQDKYFEATQTVYEWCGVATQLLAAYILLFDEYNEKKASAQKDILIKVLDDGITKLNEAQKSLLVSSQSFNNASGKLLALDSQLTNDFSEKSSYFQSQVDKIRKEAYAGAAAGVVAGPFGLIISYSIAAGVVEGKLIPELKNKLKSVQNFFTTLSNTVKQANKDIDAAKLKLTTEIVAIGEIKTETETTRFYVDYDDLMLSLLKEAAKKMINTCNEYQKRHGKKTLFEVPEV
notes: E. coli cytolysin A (ClyA), cDNA amplified from BL21 (DE3), mutations and deletions removed by two-step PCR; final plasmid has A248V compared to UniProtKB P77335; The soluble protein is a monomer; the oligomers (12, 13, 14, about 3) form with detergent; also called hemolysin (HlyE); silent hemolysin A (SheA); source: E. coli BL21 (DE3), purified (Ni2+-NTA, Mono Q anion exchange); not shown: His6, …
For B1, the “stoichiometry N” value [1] was 14, the “stoichiometry N” value [2] was 3 and 4 and the “stoichiometry N” value [3] was about 3. The “stoichiometry N” value [4] was 12 and 13.

Source: paper PMC6497250, “High-resolution cryo-EM structures of the E. coli hemolysin ClyA oligomers” (PLoS ONE, 2019)
